Data reported in article PMC8460662.

Target: AlexaFluor594-tagged pre-formed fibrils (PFFs) of alpha-synuclein (UniProt P37840)
Assay: two-colour coincidence detection (TCCD), single-molecule fluorescence; AF594-labelled α-SYN fibrils added to LTE expressing the N-GFP LB protein; fibrils at 1 µM (monomer-equivalent); stationary plate; 300 s traces, quadruplicate; Association Quotient Q

Work on “GABARAPL1 (from UniProt Q9H0R8 1-117) (natural protein)” yielded a relative presence of GFP species in the aggregates (fraction bound to fibrils) of 0.14.
